Data on 41 sequences can be found in the nanobody polyreactivity screen of Harvey et al. (2022).

A short description of this data set: yeast display, Sf9 membrane polyspecificity reagent, FACS + sequencing; frameworks hold sequencing errors. In outline: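 Genes from sorted yeast were amplified by colony PCR, read by MiSeq 2 × 250 sequencing and filtered on CDR length. These cells carried a synthetic nanobody library in Saccharomyces cerevisiae BJ5465 and were sorted by FACS into low and high (top ~1%) gates on anti-HA and streptavidin fluorescence. Polyreactivity is labelled according to the gate of origin.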
“QVQLVESGGGLVQAGGSLRLSCAASGYTFSRNAMGWYRQAPGKERELVADINYSGGITYYADSVKGRFTISRDNAKNTVYLQMNSLKPEDTAVYYCAAVATNVPTHGRPSRRAYDYWGQGTQVTVSS”: the “polyreactivity (PSR sort gate)” value is on record as “low polyreactivity”.

Consider “QVQLVESGGGLVQAGGSLRLSCAASGYTFSRYAMGWYRQAPGKERELVAAISHSAGRTYYADSVKGRFTISRDNAKNTVYLQMNSLKPEDTAVYYCATAYKPDTRDDYWGQGTQVTVSS”, for which the “polyreactivity (PSR sort gate)” value is on record as “high polyreactivity”.

In the case of “QVQLVESGGGLVQAGGSLRLSCAASGYTFSRYAMGWYRQAPGKERELVAAITSRGGRTYYADSVKVRFTISRDNAKNTVFLQMNSLKPEDNAVYYCAADVIFWRTGYDYWGPGTQVTVSS”, the “polyreactivity (PSR sort gate)” value is listed as “high polyreactivity”.

Consider “QVQLVESGGGLVQAGGSLRLSCAASGYTFTHYAMGWYRQAPGKERELVASISQSGGSTYYPDSVKGSFTISRDNAQYTVYGQMNSLKPEDTAVYYCAVDYYYDQSLYEYCGQGTQVTVSS”, for which the “polyreactivity (PSR sort gate)” value is given as “high polyreactivity”.

Regarding “QVQLVESGGGLVQAGGSLRLSCAASGYTFTSNAMGWYRQAPGKERELVAAISRSGVSTSYADSVKGRFTISRDNAKNTVYLQMNSLKPEDSAVYYCNRYYWDPTHPRYDSWGQGTQVTVSS”, the “polyreactivity (PSR sort gate)” value is “high polyreactivity”.

With “QVQLVESGGGLVQAGGSLRLSCAASGYTFTSNAMGWYRQAPGKERELVADISTGVDSTYYADSVKGRFTISRDNAKNTVYLQMNSLKPEDTAVYYCNADILVAWYDEPFDYWGQGTQVTVSS”, the “polyreactivity (PSR sort gate)” value is reported as “low polyreactivity”.

For “QVQLVESGGGLVQAGGSLRLSCAASGYTFVWYAMGWYRQAPGKERELVAAISASGGSTYYADSVKGRFTISRDNAKNTVYLQMNSLKPEDTAVYYCNAVGALSVYGGNGYWGQGTQVTVSS”, the “polyreactivity (PSR sort gate)” value is on record as “high polyreactivity”.

In the case of “QVQLVESGGGLVQAGGSLRLSCAASGYTFWQYAMGWYRQAPGKERELVATITSRGGSTYYADSVKGRFTISRDNAKNTVYLQMNSLKPEDSAVYYCNARRRYSTRRSDYWGQGTQVTVSS”, the “polyreactivity (PSR sort gate)” value is “high polyreactivity”.

For “QVQLVESGGGLVQAGGSLRLSCAASGYTFYANAMGWYRQAPGKEREFVASITWSGGSTYYADSVKGRFTISRDNAKNTVYLQMNSLKPEDTAVYYCNTDLTYPYPNVEVLVYGFKLDYWGQGTQVTVSS”, the “polyreactivity (PSR sort gate)” value was “low polyreactivity”.

For “QVQLVESGGGLVQAGGSLRLSCAASGYTFYANAMGWYRQAPGKEREFVASNTWSGGSTYYADSVKGRFTISRDTAKITVYLQMNSLKPEDTAVYYWAAESWFNYDYWGQGTQVTVSS”, the “polyreactivity (PSR sort gate)” value is “low polyreactivity”.

On to “QVQLVESGGGLVQAGGSLRLSCAASGYTFYIYAMGWSRQAPGKERELVATISSSGGGTYYADSVKGRFTISRDNAKNTVYFQMYSQKPEDTAVYDCNAAGWYWQAEGYDYWGQGTQVTVSS”, for which the “polyreactivity (PSR sort gate)” value is “low polyreactivity”.

With “QVQLVESGGGLVQAGGSLRLSCAASGYTFYKYAMGWYRQAPGKEREFVADITQSGGSTYYADSVKGRFTISRDNAKNTVYLQMNSLKPEDTAVYYCNAAYSYRPDPKGYDYWGQGTQVTVSS”, the “polyreactivity (PSR sort gate)” value is “low polyreactivity”.

“QVQLVESGGGLVQAGGSLRLSCAASGYTFYRYAMGWYRQAPGKERELVARISRSGGSTFYADSVKGRFTISRDNAKNTVYLQMNSLKPEDTAVYYCNAKQYSPYYLVIYHYWGQGTQVTVSS”: the “polyreactivity (PSR sort gate)” value is reported as “high polyreactivity”.

With “QVQLVESGGGLVQAGGSLRLSCAASGYTFYRYTMGWYRQAPGKERELVAAINSGGSTNYADSLKGRFTISRDNAKYTVYLQMNSLKPEDTAVYYCARRYQTWPRWYDYWGQGTQVTVSS”, the “polyreactivity (PSR sort gate)” value was “high polyreactivity”.

In the case of “QVQLVESGGGLVQAGGSLRLSCAASGYTIDGYAMGWYRQAPGKERELVAGISSAGTTNYADSVKGRFTISRDNAKNTVYLQMNSLKPEDTAVYYCNKDYSTYWLYTWQITVADDYWGQGTQVTVSS”, the “polyreactivity (PSR sort gate)” value is on record as “low polyreactivity”.

In the case of “QVQLVESGGGLVQAGGSLRLSCAASGYTIISYGMGWYTQAPGKERELVAAISSGDRTNYADSVKGRFTISRDNAKNTVYLQMNSLKPEDTAVYYCNADRASSSVGYSDEFGHDSWGQGTQVTVSS”, the “polyreactivity (PSR sort gate)” value is given as “low polyreactivity”.

On to “QVQLVESGGGLVQAGGSLRLSCAASGYTINPYAIGWYRQAPGKERELVATIRSSGSTNYADSVKGRFTISRDNAKYTVYLQRNSLKPEDTAVYYFAARTSGRTVRYYYWGQGTQVTVSS”, for which the “polyreactivity (PSR sort gate)” value is recorded as “high polyreactivity”.

In the case of “QVQLVESGGGLVQAGGSLRLSCAASGYTIRNYAMGWYRQAPGTERELVAAIRGSGGSTYYADSVKGRFTISRDNAKNTVYLQMNSLKPEDTAVDYCNADQLVWQRYGVLYEYDYWGQGTQVTVSS”, the “polyreactivity (PSR sort gate)” value is “high polyreactivity”.

Regarding “QVQLVESGGGLVQAGGSLRLSCAASGYTLSVNAMGWYRQAPGKERELVATIDFGGGSTYYADSVKGRFTISRDNAKNTVYLKMNSLKPEDTAVYYCNTEWTSLSKSSLGGRYDHWGQGTQVTVSS”, the “polyreactivity (PSR sort gate)” value is listed as “low polyreactivity”.

For “QVQLVESGGGLVQAGGSLRLSCAASGYTLVGYAMGWYRQAPGKEMELVAVISGSGGSTRYADSVKGRFTISRDNAKYTVYLQMNSLNPEDTAVYYCAARQPRTQAVYEGYYWGQGTQVTVSS”, the “polyreactivity (PSR sort gate)” value is “high polyreactivity”.

Consider “QVQLVESGGGLVQAGGSLRLSCAASGYTVYANAMGWYRQAPGKEREFVASITWSGGSTYYADSVKGRFSISRDNAKNPVYLQMNSLKPEDTAVYYCAAESWFKYDYWGQGTQVTVSS”, for which the “polyreactivity (PSR sort gate)” value is recorded as “low polyreactivity”.

On to “QVQLVESGGGLVQAGGSLRLSCAASNSSINAMGWYRQAPGKERELVAAIRWSGSSTYYADSEKGRFPISRDNAKTTVYLQMNSLKPEDTAVYYCAADTTTGDRGFDYWGQGTQVTVSS”, for which the “polyreactivity (PSR sort gate)” value is “high polyreactivity”.

On to “QVQLVESGGGLVQAGGSLRLSCAASRFIFQPYAMGWYRQAPGKERELVAAITSRGGRTYYADSVKGRFTISRDNAKNTVYLKMNSLKPEDSAVYYCNADIYASEYYYWGQGTQVTVSS”, for which the “polyreactivity (PSR sort gate)” value is given as “low polyreactivity”.

For the sequence “QVQLVESGGGLVQAGGSLRLSCAASRFTFLTNAMGWYRKAPGTERELVAAISSGGNTNYADSVKGRFTISRDNAKNTVYLQMNSLKPEDTAVYYCAADNDYLSSQVSYDYWGQGTQVTVSS”, the “polyreactivity (PSR sort gate)” value is given as “low polyreactivity”.

For the sequence “QVQLVESGGGLVQAGGSLRLSCAASRFTFVRYAMGWYRQAPGKEREFVASISARGGNTFYADSVKGRFTISRDNAKNTVYLQMNSLKPEDTAVYYCAASRRVGEVSYYYWGQGTQVTVSS”, the “polyreactivity (PSR sort gate)” value was “high polyreactivity”.

As for “QVQLVESGGGLVQAGGSLRLSCAASRFYTMGWYRPAPGKERELVAAISWSGGDTYYADSVKGRYTISRDNAKNTVYLQMNSLKPEDPAVFYCNKDYSFEYSLRHRDYWGQGTQVTVSS”, the “polyreactivity (PSR sort gate)” value is “low polyreactivity”.

Turning to “QVQLVESGGGLVQAGGSLRLSCAASRIFAYYTMGWIRQSPGKERELVAAITYSGGSTFYADSVKGRFTISRDNAKNTVYLQMNRLKPEDSSVYYCNAVVRNYGYDYWGQGTQVTVSS”, the “polyreactivity (PSR sort gate)” value was “high polyreactivity”.

As for “QVQLVESGGGLVQAGGSLRLSCAASRIFRGYAMGWYRQAPGKERELVAAIDRGVSTYYADSVKGRFTISRDNAKNTVYLQMNSRKPEDTAVYYCAVEYWEPYDMDYWGQGTQVTVSS”, the “polyreactivity (PSR sort gate)” value was “high polyreactivity”.

“QVQLVESGGGLVQAGGSLRLSCAASRLIVYQNAMGWYRQAPGKEREFVAAISWSGGRTYYADSVKGRFTISRDNAKNTVYLQMNSLKPEDTAVYYCAARFTYYTYEFEYWGQGTQVTVSS”: the “polyreactivity (PSR sort gate)” value is on record as “high polyreactivity”.

With “QVQLVESGGGLVQAGGSLRLSCAASRLTFQQYAMGWYRQAPGKERELVAAITSDGASTNYADSVKGRFTISRDNAKNTVYLQMNSLKPEDTAVYYCAARRSSRQYRYDYWGQGTQVTVSS”, the “polyreactivity (PSR sort gate)” value is on record as “high polyreactivity”.

On to “QVQLVESGGGLVQAGGSLRLSCAASRLTFVGYAMGWYRQAPGKETALVAALTSSGGGTYYADSVKGRFTISRDNAKNPVYLQMNSLKPQDTALYYCAKVTRGSQYDYWGQGTEVTVSS”, for which the “polyreactivity (PSR sort gate)” value is given as “low polyreactivity”.

For “QVQLVESGGGLVQAGGSLRLSCAASRRIFYAYAMGWYRQAPGKEIELLATITGIGGSTYADSVKGRFTISRDNAKNTVNLQMNSLKPEDTAVYYCNAERGVYWGRYPYKYDYLGQGTQVTVSS”, the “polyreactivity (PSR sort gate)” value is reported as “low polyreactivity”.

For the sequence “QVQLVESGGGLVQAGGSLRLSCAASRRIIYRSAMGWYRQAPGKERELLAAITSGDSTYYADSVKVRFTISRDNSKNTVFLQMNSLKPEDTAVYYCAADYLSRSPAYEHYYWGQGTQVTVSS”, the “polyreactivity (PSR sort gate)” value is given as “high polyreactivity”.

Regarding “QVQLVESGGGLVQAGGSLRLSCAASRRTFANYAMGWYRQAPGKERELVAAISRSGGSTYYADSVKGRFTISRDNAKNSVYLQMKSLKPEDTAVYYCAARYVRQYYRAEDYWGQGTHVTVSS”, the “polyreactivity (PSR sort gate)” value is on record as “high polyreactivity”.

As to “QVQLVESGGGLVQAGGSLRLSCAASRRTFSYNTMGWYRQAPGTERELVARITWGGGSTNYADSVKGRFTISRDNAKNTVYLQMNSLKPEDTAVYYCAAGPSVPYGPQKVDYWGQGTQVTVSS”, the “polyreactivity (PSR sort gate)” value is on record as “low polyreactivity”.

For the sequence “QVQLVESGGGLVQAGGSLRLSCAASRSIFGYNAMGWYRPAPGKEREFVAAIRWSSGSTYYADSVKGRFTISRDNAKNTVYLQMNSLKPEDTAVYYCATRQTYLYLGQGTQVTVSS”, the “polyreactivity (PSR sort gate)” value was “high polyreactivity”.

On to “QVQLVESGGGLVQAGGSLRLSCAASRSIFRIYAMGWYRQAPGKERELVAGISKSGGSTYYADSVKGRFTISRDNAKNTVYLQMNSLKPEDTAVYYCNAGYNWSGLAVGRYGYDSWGQGTQVTVSS”, for which the “polyreactivity (PSR sort gate)” value is given as “low polyreactivity”.

For the sequence “QVQLVESGGGLVQAGGSLRLSCAASRSTFFHYAMGWNRQAPGKERELVAAISSDGITNYADSVKGRFTISRDNAKNTVYLQMNILIPEDTAVYYCNAETVSTVGLGYWGQGTQVTVSS”, the “polyreactivity (PSR sort gate)” value was “low polyreactivity”.

Consider “QVQLVESGGGLVQAGGSLRLSCAASRSTFNYYTMGWYRQAPGKERELVAAISRGGSTYYADSVKGRFTISRDNAKNTVYLQMNSLKPEDTAVYYCAATVYPRYFRKYDYWGQGTQVTVSS”, for which the “polyreactivity (PSR sort gate)” value is reported as “high polyreactivity”.

Take “QVQLVESGGGLVQAGGSLRLSCAASRSTFPKYAMGWNRKAPGKERELVASISVTTGSPYYADSVKGRFTISLDNAKNTVYLQKNSLKPEDTAVYYCAKRTYSRKFRGAYNYWGQGTQVSVSS”: the “polyreactivity (PSR sort gate)” value is listed as “high polyreactivity”.

In the case of “QVQLVESGGGLVQAGGSLRLSCAASRSTFRYYTMGWYRQSPGKERELVARISRSGGSTYYADSVKGRFTISRDNAKNTVYLQMNSLKPEDTSVYYCAALYYVKPGQRYDYWGQGTQVTVSS”, the “polyreactivity (PSR sort gate)” value is “high polyreactivity”.
